Target: T1, mutated human CRTH2 with amino acid substitution (Homo sapiens, UniProt Q9Y5Y4, E15A/L14A/P12A)
T1 construct: inserting genes encoding various mutants with amino acid substitution obtained by deleting termination codons; expressed in transfected cells; host or cells: CHO-S cells (Lifetechnologies), transient (phmAG1-MNLinker vector)
T1 sequence (Q9Y5Y4 1-395 P12A/L14A/E15A): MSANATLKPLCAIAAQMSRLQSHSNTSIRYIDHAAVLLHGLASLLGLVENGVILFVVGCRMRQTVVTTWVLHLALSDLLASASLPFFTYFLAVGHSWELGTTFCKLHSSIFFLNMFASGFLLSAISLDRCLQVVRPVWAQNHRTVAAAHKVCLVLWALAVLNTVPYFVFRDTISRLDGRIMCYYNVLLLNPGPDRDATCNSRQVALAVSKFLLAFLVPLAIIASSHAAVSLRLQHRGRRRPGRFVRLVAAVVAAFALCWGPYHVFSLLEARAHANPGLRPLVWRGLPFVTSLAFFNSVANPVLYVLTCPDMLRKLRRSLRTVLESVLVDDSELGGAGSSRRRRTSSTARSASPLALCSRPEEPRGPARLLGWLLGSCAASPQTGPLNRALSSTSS
Assay: Epitope analysis using CHO-S cells which express mutated human CRTH2 with amino acid substitution
Type: binding
Conditions: mutant P12A, L14A, and E15A; antibody 10 μg/mL; relative to wild-type = 100%
How it was run: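 CHO-S cells transiently expressing alanine-substituted human CRTH2 extracellular mutants, C-terminally Azami-Green tagged, 24 h post-transfection. Antibodies at 10 μg/mL, 4 °C 1 h, then Alexa647 anti-IgG secondary 4 °C 1 h; flow cytometry on Azami-Green-positive cells. Reactivity = Alexa647 intensity divided by Azami-Green intensity.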

- reactivity against cells expressing mutated human CRTH2: lost
B1: LV0HV1: humanized Lym2 antibody, VL LV0 (SEQ ID NO: 33), VH HV1 (SEQ ID NO: 51) (antibody, V domains shown)
VH: EVQLVESGGGVVQPGRSLRLSCAASGFTFSNYYMAWVRQAPGKGLEWVATISYDGSSTYYRDSVKGRFTISRDNAKNSLYLQMNSLRAEDTATYYCARHRGYYYSGAGYFDYWGQGTMVTVSS
VL: DIVMTQTPLSLPVTPGESASISCRSSQSLEYSDGYTYLEWYLQKPGQSPQVLIYGVSNRFSGVPDRFSGSGSGTDFTLKISRVEAEDVGVYYCFQATHDPLTFGQGTKLEIK
